Source: the domain aggregation screens of Martell et al. (2025)

Assay: soluble fraction after stress (log2 fold change); higher = more stays soluble; pooled small domains, quantitative proteomics
Conditions: stress: 50 degC
Outline: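 Quantitative proteomics served as the high-throughput read-out for pooled custom libraries of small protein domains. Each was stressed at 50°C. Aggregation propensity is expressed as the base-two log fold change in soluble protein after stress. A higher value means a larger share of the protein remains in solution.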
With “HMGQLTDKQILLFSGKLAYEPTFASKYSKAGESYDDFIIRISGDLTDPKKIKEYSPYLKELGF” the “soluble fraction (log2)” value was -0.161. In the case of “HMSIYMNIYNEFKKYIIANVYKYDDKLPSVRSIALEYGINPNTVQRAFQLLEDEGYIKTISKKGVYVNYR”, the “soluble fraction (log2)” value is reported as -0.781. With “HMADLIIMSSDATEKQVDKVINKIKNMGFNVNISKGTEKTIIGIIGDTRGISDEVFKIMPGVIEVISILRD” the “soluble fraction (log2)” value was -0.39. With “HMLSVTLTVLPQQAGERLDAFAAAESTLSRSAAAKLIEDGQITVNGARAAKNYRLRAGDVIEIDEPEPI” the “soluble fraction (log2)” value was 0.00149. With “HMARTDVKLREVAQELLRMGLLEESLRPHLYRTALASMERLNATLEPLDLIARADEIRGLVFLAVRH” the “soluble fraction (log2)” value was -2.44. In the case of “HMNTYEIIGGDNRARGPVTGEELSQWIREGRASGHTMARVSDGEHWQPLGSFPEFVGPLQGLPW”, the “soluble fraction (log2)” value is reported as 0.127. In the case of “HMPDLQDTLYRLVPEDGSAIGNQSLREKFLSTAKDASDADFEAARDGLVEQGKLTKGKGRGGSVRRAEP”, the “soluble fraction (log2)” value is reported as 0.389. With “HMGNFNDMLKYLRVREKMSQAELADKLGVSKSTVGMYELGKREPDFETLEAIADLFNVDMNFLLGK” the “soluble fraction (log2)” value was -0.35. In the case of “HMYSSASKEEIDQLMKRLILNLDAKGYFWPQDKEKSLKLYLHNLFSKLPLNSSDIRFLHGLIRALSEE”, the “soluble fraction (log2)” value is reported as -1.08. In the case of “HMKVFREERLQLILEKLIHEKKVVVSDLVKYFNVSPSLIRMDLAELEKRDLILRTHGGAILPD”, the “soluble fraction (log2)” value is reported as -2.23. In the case of “HMAAPPPLSDYRNMQEAEHIRNILLQHHGNVRRAAAALELSRPYLYQKMKQLGINIAELRELSLSHSS”, the “soluble fraction (log2)” value is reported as -0.559. For “HMGEVVSAPMPGTILSIKVSQGQTVKRGQVLLILEAMKMENEIVAPRDGVVVQISTTQGASVETGAPLVVL”, the “soluble fraction (log2)” value was -0.0677. In the case of “HMWTPLVVAVLIGGTHRFGELRAAVGGITPKVLTETLRSMERDGLVVREQTPGVPPRVDYALTPLGA”, the “soluble fraction (log2)” value is reported as -0.319. In the case of “HMQALDETTVSRIRQKAAARNLLLKVLAGQLGVARPTLSNVLARREAPSAALAARIRAFLDSP”, the “soluble fraction (log2)” value is reported as -0.894. In the case of “HMLLTEETLPQLKQIVDEFPYFQIARMLYLKNLAVLNDIRFSVELKKMSIYVPDRRKLFTLIEGE”, the “soluble fraction (log2)” value is reported as 0.00426. With “HMPGLQSVTPAELKIGMYVILPLAWDEHPFLKNHFLIQSEAQINKIRELGTKGIQIDLSKSHP” the “soluble fraction (log2)” value was -0.904. For “HMIDFDEIEILSSSKIEKIENSEYLKSSIFEKDSNQYIYRLSFENRDQLKNFKKEIEDIDQIKKIDVTY”, the “soluble fraction (log2)” value was 0.103. In the case of “HMTSPNPLIRSTTPGLETNKKGGIIVDENEMSTRENVFAGGDAVTGAATVILAMGAGKKAAAAIDAKLQN”, the “soluble fraction (log2)” value is reported as 0.12. With “HMNIDGLIGKKALVTADIDNVNSKGQIKINGLEWTARSVDDEPIPMGTEVEITAISGVKAIVRKG” the “soluble fraction (log2)” value was 0.168. For “HMEYKKKIGELLIDGNKKLKAANIDTYILDTQLLLGKVLGKDKLYLITNKDEEVSNFKEREFYSLIEKRI”, the “soluble fraction (log2)” value was 0.00227. With “HMNKTQLQIEDEVLKPLIAEIFSKSKGRFGARKIRSKLMGLGYTASERRILRLMKELGLSSAG” the “soluble fraction (log2)” value was -0.378. With “HMYSQEEKRYMEIMEIKPQELSAENLKKQYKKLVKKYHPDLHQDDKQAAEEKFKQLTNAYQVLMRRF” the “soluble fraction (log2)” value was 0.0779. For “HMDTLESYVKRLEKLEGIADSFKGVSKAFALQAGREIRIMVESEKITDEEAVWLSKDIARRIENELEYPG”, the “soluble fraction (log2)” value was -0.378. With “HMGTPLYLLLAAEVRDRIATEQLAPHTAVPSERELAELHGVSRMTARQALALLESEGLVYRNPPRGTFVAE” the “soluble fraction (log2)” value was -0.85. With “HMDNQSIVRINDGDGAWRQRLGEHFGHLPRDRKRGEIVLQVDAADWRWLQTQGYAPRFDAALSAQLQTTL” the “soluble fraction (log2)” value was -0.404. In the case of “HMAIELTPRQLDIIELVRKHAPITGEQIAELLGVTRPSIRSDLGLLVMLGYIDAKPKVGYFAGPRM”, the “soluble fraction (log2)” value is reported as -0.597. For “HMSEHKFIVPEEFNLKRLDQTVAAQFEKISRTKISKIIKSSLLKVNDKVVTDQSIKIKQDDVITFTEIKDQ”, the “soluble fraction (log2)” value was 0.0288. For “HMGSALLEAGADDAGQRLDQWLAAKLGPSISRSRVQALIKQGAVLVGGKPAGEAKRKLVAGDVVSVALPEP”, the “soluble fraction (log2)” value was 0.0853. With “HMTEDELLAQFEEILDGYVGKPGGLIPALQTAQKLFGYLPKRVLQLISMKLDIPYSEVTGVVSFYSFFTTV” the “soluble fraction (log2)” value was -0.0145. In the case of “HMPEDQISYTDLIKQINDGNVEKIKMTVGSTTIKVNLKEQEEPKTAIVPSTQAFIELVQEKVQDGNEITLI”, the “soluble fraction (log2)” value is reported as 0.119.
